In experiment [1] the target is T1, full-length human CD47 stably expressed on CHO cells (CHO-hCD47) (human, UniProt Q08722 19-323). Briefly: FACS; pH 7.4.
Experiment [2] addresses T2, extracellular domain of CD47 fused to a His(×6)-Avi-tag (human). Description: ELISA; pH 6.2. Background: In an ELISA, binding on a coated surface is turned into a signal by an enzyme label.
Experiment [3] concerns the target T2, extracellular domain of CD47 fused to a …. Briefly: SPR; pH 6.8. A general note: SPR reads the build-up and loss of mass on a sensor chip optically.
The target in experiment [4] is T3, cell-surface CD47 on Raji, Jurkat and MDA-231 tumor cells (human (endogenous in Raji, Jurkat, …, UniProt Q08722 19-323)). Briefly: FACS; MDA-231, pH 6.8. (Flow cytometry measures light scatter and fluorescence of single cells or particles in a stream.)
T3 sequence (Q08722 19-323): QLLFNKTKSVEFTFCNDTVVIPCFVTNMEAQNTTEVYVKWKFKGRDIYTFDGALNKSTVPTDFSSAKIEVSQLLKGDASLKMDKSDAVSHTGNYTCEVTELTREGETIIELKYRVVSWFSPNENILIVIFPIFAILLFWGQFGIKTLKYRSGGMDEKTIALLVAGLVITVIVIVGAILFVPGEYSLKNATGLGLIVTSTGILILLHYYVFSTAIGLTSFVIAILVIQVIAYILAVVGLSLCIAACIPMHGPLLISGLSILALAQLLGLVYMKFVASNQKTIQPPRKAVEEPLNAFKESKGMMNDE
Experiment [5] has as its target T3, cell-surface CD47 on Raji, Jurkat and …. Description: FACS; MDA-231, pH 7.4.
The target is the same in experiment [6]. Description: FACS; Jurkat, pH 6.8.
The target is the same in experiment [7]. Briefly: FACS; Jurkat, pH 7.4, competition with bio-SIRPα-Fc.
The target in experiment [8] is T2, extracellular domain of CD47 fused to a …. Briefly: ELISA; pH 7.4.
Experiment [9] addresses T3, cell-surface CD47 on Raji, Jurkat and …. Description: FACS; Raji, pH 6.8, competition with bio-SIRPα-Fc.
Experiment [10] shares this target. Briefly: FACS; Jurkat, pH 7.4.
For experiment [11] the target is unchanged. Description: FACS; Raji, pH 7.4, competition with bio-SIRPα-Fc.
The target of experiment [12] is T1, full-length human CD47 stably expressed …. Briefly: FACS; pH 7.4, competition with bio-SIRPα-Fc.
Experiment [13] deals with T3, cell-surface CD47 on Raji, Jurkat and …. Briefly: FACS; Raji, pH 7.4.
The target of experiment [14] is T2, extracellular domain of CD47 fused to a …. Description: ELISA; pH 6.4.
The target is the same in experiment [15]. Briefly: ELISA; pH 7.0.
The target in experiment [16] is T1, full-length human CD47 stably expressed …. Briefly: FACS; pH 6.8, competition with bio-SIRPα-Fc.
Experiment [17] deals with T3, cell-surface CD47 on Raji, Jurkat and …. Description: FACS; MDA-231, pH 7.4, competition with bio-SIRPα-Fc.
Experiment [18] shares this target. Description: FACS; MDA-231, pH 6.8, competition with bio-SIRPα-Fc.
The target of experiment [19] is T2, extracellular domain of CD47 fused to a …. Briefly: ELISA; pH 7.6.
For experiment [20] the target is unchanged. Briefly: ELISA; pH 6.8.
Experiment [21] has the same target. Briefly: ELISA; pH 6.6.
For experiment [22] the target is unchanged. Description: ELISA; pH 7.2.
Experiment [23] shares this target. Briefly: SPR; pH 7.4.
Experiment [24] has as its target T3, cell-surface CD47 on Raji, Jurkat and …. Description: FACS; Raji, pH 6.8.
Experiment [25] concerns the target T1, full-length human CD47 stably expressed …. Description: FACS; pH 6.8.
The target of experiment [26] is T3, cell-surface CD47 on Raji, Jurkat and …. Briefly: FACS; Jurkat, pH 6.8, competition with bio-SIRPα-Fc.

Residue numbers refer to the chain shown, from its start.

T2 sequence (chain, as listed by the source): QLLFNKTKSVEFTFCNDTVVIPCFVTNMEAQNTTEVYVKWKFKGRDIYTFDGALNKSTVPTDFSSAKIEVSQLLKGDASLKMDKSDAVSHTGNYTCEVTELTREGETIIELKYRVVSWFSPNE
T1 sequence (Q08722 19-323): as the sequence (Q08722 19-323) above

B1: BC31M5 (hIgG1 form) (antibody, V domains shown)
VH: QVQLVQSGAEVKKPGASVKVSCKASGYTFTSYGISWVRQAPGQGLEWMGWISAYNGNTNYAQKLQGRVTMTTDTSTSTAYMELRSLRSDDTAVYYCARGTVYFDYWGQGTLVTVSS
VL: EIVLTQSPATLSLSPGERATLSCRASQSLSRNHLAWYQQKPGQPPRLLIHWASTRESGVPDRFSGSGSGTDFTLTISSLQAEDVAVYYCQQHTQNTWTFGQGTKVEIK
The EC50 is the concentration needed to bring the measured effect to its halfway point. A lower EC50 goes with greater potency. In general, Kd refers to the free concentration of one partner at which half of the binding sites on the other are occupied at equilibrium, for simple one-to-one binding. High values mean a looser complex, low ones a tighter complex. For orientation: IC50 means the point on the concentration scale where inhibition reaches its midpoint. Low values mean inhibition by little substance, high ones a need for much substance. With B1, the EC50 in experiment [1] is 4.1 nM; in experiment [2] it was 0.06 nM; in experiment [4] it was 1.2 nM; in experiment [5] it was 3.3 nM; in experiment [6], 1.5 nM; in [8] it was 0.04 nM. Besides, the EC50 was 2 nM in [10]; 4 nM in experiment [13]; 0.05 nM in [14]; 0.04 nM in experiment [15]; 0.06 nM in [19]; 0.04 nM in experiment [20]. Further, the EC50 in experiment [21] was found to be 0.05 nM; in experiment [22], 0.04 nM; in [24], 0.7 nM; in experiment [25], 4.8 nM. Also, the Kd in experiment [3] was determined as 3.6 nM; in experiment [23], 6.9 nM. Besides, the IC50 in experiment [7] amounted to 17.2 nM; in experiment [9], 1.2 nM; in experiment [11], 6.7 nM; in experiment [12], 5.9 nM; in experiment [16] it was 4.1 nM; in [17], 9.3 nM. In addition, the half-maximal inhibitory concentration (IC50) in [18] was found to be 1.7 nM; in [26], 4.2 nM.

B2: BC27 (hIgG1 form) (antibody, V domains shown)
VH: B1 VH with T100K
VL: B1 VL with H92Y, T93Y, Q94T, N95A, T96S
In experiment [23], B2 yielded a Kd of 1170 nM.

B3: BC31M4 (hIgG1 form) (antibody, V domains shown)
VH: B1 VH with T100A
VL: B1 VL
On to B3, for which the EC50 in [1] was roughly 21.4 nM; in [4] it was 8.5 nM; in experiment [5], roughly 231 nM; in experiment [6], 1.54 nM; in experiment [8], 0.51 nM; in [10], roughly 131 nM. For the same molecule, the EC50 in experiment [13] is roughly 92 nM; in experiment [15] it was 0.04 nM; in experiment [22], 0.11 nM; in experiment [24], 6.8 nM; in experiment [25] it was 4.8 nM. In addition, the IC50 in [9] is 19.9 nM; in [12] it was roughly 30.4 nM; in [16], 5.4 nM; in [17] it was roughly 507 nM; in [18], 22.7 nM; in [26] it was 35 nM. This molecule yielded a Kd in [23] of 457 nM.

The values are drawn from article PMC9844003 (2023).
